B1: TAF7L (parent)
chain: PDVENEVKRLLRSDAEAVSTRWEV
B2: C22orf15 (parent)
chain: RGRHEQSPTSRPRKVSSLPPRSC

Variants of: B1
Assay: protein stability index of a GFP-peptide fusion (GPS, HEK-293T) (PSI 1-6); higher = more stable
Conditions: c terminus: a fixed tail appended
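Further: lentivirally expressed fusions sorted by FACS into six bins by GFP to DsRed ratio, PSI derived from sequencing read proportions per bin multiplied by bin number.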

Variant	protein stability index
PDVEWEVKRLLRSDAEAVSTRWEV	2.95
PDVEFEVKRLLRSDAEAVSTRWEV	2.62
PDVEKEVKRLLRSDAEAVSTRWEV	3.21
PDVEMEVKRLLRSDAEAVSTRWEV	2.81
PDVEPEVKRLLRSDAEAVSTRWEV	3.57
PDVEYEVKRLLRSDAEAVSTRWEV	3.1
PDVELEVKRLLRSDAEAVSTRWEV	2.82
PDVEAEVKRLLRSDAEAVSTRWEV	3.79
PDVESEVKRLLRSDAEAVSTRWEV	2.03
PDVEQEVKRLLRSDAEAVSTRWEV	3.07
PDVENHVKRLLRSDAEAVSTRWEV	2.9
PDVENNVKRLLRSDAEAVSTRWEV	3.12
PDVENMVKRLLRSDAEAVSTRWEV	2.05
PDVENKVKRLLRSDAEAVSTRWEV	3.17
PDVENCVKRLLRSDAEAVSTRWEV	2.9
PDVENPVKRLLRSDAEAVSTRWEV	4.02
PDVENGVKRLLRSDAEAVSTRWEV	3.25
PDVWNEVKRLLRSDAEAVSTRWEV	1.93
PDVYNEVKRLLRSDAEAVSTRWEV	3.14
PDVFNEVKRLLRSDAEAVSTRWEV	1
PDVANEVKRLLRSDAEAVSTRWEV	4.39
PDVNNEVKRLLRSDAEAVSTRWEV	3.05
PDVVNEVKRLLRSDAEAVSTRWEV	2.76

Variant	protein stability index
PDVCNEVKRLLRSDAEAVSTRWEV	2.38
PDVQNEVKRLLRSDAEAVSTRWEV	3.21
PDVMNEVKRLLRSDAEAVSTRWEV	1.69
PDVTNEVKRLLRSDAEAVSTRWEV	3.17
PDVPNEVKRLLRSDAEAVSTRWEV	3.86
PDVDNEVKRLLRSDAEAVSTRWEV	2.19
PDVGNEVKRLLRSDAEAVSTRWEV	2.92
PDVKNEVKRLLRSDAEAVSTRWEV	3.35
HDVENEVKRLLRSDAEAVSTRWEV	2.27
EDVENEVKRLLRSDAEAVSTRWEV	4.44
YDVENEVKRLLRSDAEAVSTRWEV	3
TDVENEVKRLLRSDAEAVSTRWEV	3.29
NDVENEVKRLLRSDAEAVSTRWEV	3.43
RDVENEVKRLLRSDAEAVSTRWEV	2.36
ADVENEVKRLLRSDAEAVSTRWEV	2.92
DDVENEVKRLLRSDAEAVSTRWEV	2.96
SDVENEVKRLLRSDAEAVSTRWEV	4.05
LDVENEVKRLLRSDAEAVSTRWEV	3.52
IDVENEVKRLLRSDAEAVSTRWEV	2.79
KDVENEVKRLLRSDAEAVSTRWEV	3.27
PFVENEVKRLLRSDAEAVSTRWEV	3.15
PAVENEVKRLLRSDAEAVSTRWEV	3.91
PPVENEVKRLLRSDAEAVSTRWEV	3.58

Variant	protein stability index
PKVENEVKRLLRSDAEAVSTRWEV	3.71
PHVENEVKRLLRSDAEAVSTRWEV	2.69
PTVENEVKRLLRSDAEAVSTRWEV	2.59
PLVENEVKRLLRSDAEAVSTRWEV	2.56
PCVENEVKRLLRSDAEAVSTRWEV	2.9
PIVENEVKRLLRSDAEAVSTRWEV	1.94
PVVENEVKRLLRSDAEAVSTRWEV	3.2
PMVENEVKRLLRSDAEAVSTRWEV	3.13
PYVENEVKRLLRSDAEAVSTRWEV	2.81
PQVENEVKRLLRSDAEAVSTRWEV	2.62
PDHENEVKRLLRSDAEAVSTRWEV	3.86
PDTENEVKRLLRSDAEAVSTRWEV	3.99
PDQENEVKRLLRSDAEAVSTRWEV	3.79
PDMENEVKRLLRSDAEAVSTRWEV	3.5
PDCENEVKRLLRSDAEAVSTRWEV	3.75
PDEENEVKRLLRSDAEAVSTRWEV	4.74
PDSENEVKRLLRSDAEAVSTRWEV	3.13
PDNENEVKRLLRSDAEAVSTRWEV	3.09
PDKENEVKRLLRSDAEAVSTRWEV	4.4
PDGENEVKRLLRSDAEAVSTRWEV	3.05
PDFENEVKRLLRSDAEAVSTRWEV	3.32
PDPENEVKRLLRSDAEAVSTRWEV	4.43
PDDENEVKRLLRSDAEAVSTRWEV	4.13

Variants of: B2
Assay: as above
Conditions: c terminus: native

Variant	protein stability index
RGRHEQSPTSRPRKVSSLPPHSC	4.53
RGRHEQSPTSRPRKVSSLPPESC	5.2
RGRHEQSPTSRPRKVSSLPPCSC	3.38
RGRHEQSPTSRPRKVSSLPPLSC	3.37
RGRHEQSPTSRPRKVSSLPPYSC	4.92
RGRHEQSPTSRPRKVSSLPPGSC	1.74
RGRHEQSPTSRPRKVSSLPPTSC	4.25
RGRHEQSPTSRPRKVSSLPPDSC	5.37
RGRHEQSPTSRPRKVSSLPPKSC	5.13
RGRHEQSPTSRPRKVSSLPPASC	4.53
RGRHEQSPTSRPRKVSSLPPNSC	4.68
RGRHEQSPTSRPRKVSSLPPWSC	4.43
RGRHEQSPTSRPRKVSSLPPISC	2.83
RGRHEQSPTSRPRKVSSLPPSSC	4.8
RGRHEQSPTSRPRKVSSLPPVSC	2.88
RGRHEQSPTSRPRKVSSLPPQSC	4.51
RGRHEQSPTSRPRKVSSLPPFSC	4.25
RGRHEQSPTSRPRKVSSLPPPSC	4.74
RGRHEQSPTSRPRKVSSLPPMSC	3.66
RGRHEQSPTSRPLKVSSLPPRSC	3.56
RGRHEQSPTSRPQKVSSLPPRSC	1.47
RGRHEQSPTSRPWKVSSLPPRSC	1.54
RGRHEQSPTSRPSKVSSLPPRSC	2.15
RGRHEQSPTSRPHKVSSLPPRSC	3.08
RGRHEQSPTSRPYKVSSLPPRSC	1.49

Variant	protein stability index
RGRHEQSPTSRPMKVSSLPPRSC	3.68
RGRHEQSPTSRPTKVSSLPPRSC	2.73
RGRHEQSPTSRPRKVSSLPDRSC	3.82
RGRHEQSPTSRPRKVSSLPSRSC	1.99
RGRHEQSPTSRPRKVSSLPIRSC	2.72
RGRHEQSPTSRPRKVSSLPCRSC	1.58
RGRHEQSPTSRPRKVSSLPARSC	3
RGRHEQSPTSRPRKVSSLPVRSC	2.26
RGRHEQSPTSRPRKVSSLPYRSC	2.1
RGRHEQSPTSRPRKVSSLPERSC	2.84
RGRHEQSPTSRPRKVSSLPFRSC	4.13
RGRHEQSPTSRPRKLSSLPPRSC	3.74
RGRHEQSPTSRPRKQSSLPPRSC	2.22
RGRHEQSPTSRPRKCSSLPPRSC	2.52
RGRHEQSPTSRPRKFSSLPPRSC	3.96
RGRHEQSPTSRPRKGSSLPPRSC	2.29
RGRHEQSPTSRPRKPSSLPPRSC	4.67
RGRHEQSPTSRPRKKSSLPPRSC	3.42
RGRHEQSPTSRPRKRSSLPPRSC	2.8
RGRHEQSPTSRPRKDSSLPPRSC	1.97
RGRHEQSPTSRPRKNSSLPPRSC	2.71
RGRHEQSPTSRPRKHSSLPPRSC	4.12
RGRHEQSPTSRPRKSSSLPPRSC	2.1
RGRHEQSPTSRPRKTSSLPPRSC	1.82
RGRHEQSPTSRPRKVSSLPPRLC	2.35

Variant	protein stability index
RGRHEQSPTSRPRKVSSLPPRTC	3.62
RGRHEQSPTSRPRKVSSLPPREC	2.6
RGRHEQSPTSRPRKVSSLPPRQC	2.27
RGRHEQSPTSRPRKVSSLPPRDC	1.39
RGRHEQSPTSRPRKVSSLPPRPC	3.03
RGRHEQSPTSRPRKVSSLPPRHC	4.07
RGRHEQSPTSRPRKVSILPPRSC	2.3
RGRHEQSPTSRPRKVSPLPPRSC	3.73
RGRHEQSPTSRPRKVSYLPPRSC	2.45
RGRHEQSPTSRPRKVSGLPPRSC	1.99
RGRHEQSPTSRPRKVSNLPPRSC	2.99
RGRHEQSPTSRPRKVSMLPPRSC	1.89
RGRHEQSPTSRPRKVSELPPRSC	3.27
RGRHEQSPTSRPRKVSRLPPRSC	3.79
RGRHEQSPTSRPRKVSKLPPRSC	1.93
RGRHEQSPTSRPRKVSQLPPRSC	2.34
RGRHEQSPTSRPRKVSSLYPRSC	3.14
RGRHEQSPTSRPRKVSSLMPRSC	1.93
RGRHEQSPTSRPRKVSSLTPRSC	4.33
RGRHEQSPTSRPRKVSSLIPRSC	1.81
RGRHEQSPTSRPRKVSSLDPRSC	3.23
RGRHEQSPTSRPRKVSSLAPRSC	4.11
RGRHEQSPTSRPRKVSSLQPRSC	1.44
RGRHEQSPTSRPRKVSSLRPRSC	2.13
RGRHEQSPTSRPRKVSSLVPRSC	2.86

Variant	protein stability index
RGRHEQSPTSRPRKVSSLSPRSC	3.79
RGRHEQSPTSRPRKVSSLFPRSC	2.19
RGRHEQSPTSRPRKVSSLLPRSC	3.07
RGRHEQSPTSRPRKVSSYPPRSC	2.29
RGRHEQSPTSRPRKVSSMPPRSC	3.65
RGRHEQSPTSRPRKVSSCPPRSC	2.88
RGRHEQSPTSRPRKVSSAPPRSC	1.68
RGRHEQSPTSRPRKVSSHPPRSC	3.38
RGRHEQSPTSRPRKVSSWPPRSC	3.64
RGRHEQSPTSRPRKVSSTPPRSC	4.07
RGRHEQSPTSRPRKVSSVPPRSC	3.25
RGRHEQSPTSRPRKVSSDPPRSC	1.5
RGRHEQSPTSRPRKVSSIPPRSC	2.76
RGRHEQSPTSRPREVSSLPPRSC	3.42
RGRHEQSPTSRPRIVSSLPPRSC	2.67
RGRHEQSPTSRPRDVSSLPPRSC	3.71
RGRHEQSPTSRPRGVSSLPPRSC	3.13
RGRHEQSPTSRPRWVSSLPPRSC	1.93
RGRHEQSPTSRPRTVSSLPPRSC	4.73
RGRHEQSPTSRPRYVSSLPPRSC	2.54
RGRHEQSPTSRPRFVSSLPPRSC	3.52
RGRHEQSPTSRPRQVSSLPPRSC	4.04
RGRHEQSPTSRPRVVSSLPPRSC	3.29
RGRHEQSPTSRPRNVSSLPPRSC	1.24
RGRHEQSPTSRPRKVASLPPRSC	1.95

Variant	protein stability index
RGRHEQSPTSRPRKVQSLPPRSC	2.92
RGRHEQSPTSRPRKVISLPPRSC	1.98
RGRHEQSPTSRPRKVMSLPPRSC	2.63
RGRHEQSPTSRPRKVHSLPPRSC	2.57
RGRHEQSPTSRPRKVTSLPPRSC	2.07
RGRHEQSPTSRPRKVDSLPPRSC	2.87
RGRHEQSPTSRPRKVVSLPPRSC	3.6
RGRHEQSPTSRPRKVYSLPPRSC	3.44
RGRHEQSPTSRPRKVPSLPPRSC	2.77
RGRHEQSPTSRPRKVKSLPPRSC	2.94
RGRHEQSPTSRPRKVNSLPPRSC	2.53
RGRHEQSPTSRPRKVWSLPPRSC	1.81
RGRHEQSPTSRPRKVFSLPPRSC	3.32
RGRHEQSPTSRPRKVSSLPPRSI	1.8
RGRHEQSPTSRPRKVSSLPPRSF	3.5
RGRHEQSPTSRPRKVSSLPPRST	2.97
RGRHEQSPTSRPRKVSSLPPRSN	5.09
RGRHEQSPTSRPRKVSSLPPRSV	3.28
RGRHEQSPTSRPRKVSSLPPRSH	2.29
RGRHEQSPTSRPRKVSSLPPRSW	2.64
RGRHEQSPTSRPRKVSSLPPRSL	2.42
RGRHEQSPTSRPRKVSSLPPRSY	3.2
RGRHEQSPTSRPRKVSSLPPRSQ	2.29

Reference: the supplement of paper PMC10567573
